Molecular target: FLAG-RepoMan-Ubc9
Test: co-immunoprecipitation (IP anti-HA, immunoblot anti-FLAG, quantified with ImageJ)
Details: 293FT cells; lane 18; with CFP-SUMO2(R59E); ratio of SUMOylated to non-SUMOylated FLAG-RepoMan(WT)-Ubc9 co-precipitated with HA-lamin A; input ratio 0.99 (lane …)

HA–lamin A (WT) (from UniProt P02545) V494E; V495E
other: SUMOylated/non-SUMOylated: 0.31

Source: PMC8445599
